Test results published in patent publication US20190194324A1 (published 2019).

Columns and labels:
α-syn-biotin monomer [1] = target: T1, α-syn-biotin monomer (mouse, UniProt O55042 1-140); assay: cell surface binding (SH-SY5Y); LAG3* (no Triton)
α-syn-biotin monomer [2] = target: T1, α-syn-biotin monomer; assay: cell surface binding (SH-SY5Y)
[3] = target: α-syn-biotin PFF (biotin-labelled α-synuclein pre-formed fibrils) (mouse, UniProt O55042 1-140); assay: cell surface binding (SH-SY5Y)

Row | Kd (α-syn-biotin monomer [1]) [µM] | Kd (α-syn-biotin monomer [2]) [µM] | Kd [3] [µM] | Binder
1 | > 3 | – | – | LAG3 overexpressed in transfected cells (SH-SY5Y; HEK293FT) (receptor) LQPGAEVPVVWAQEGAPAQLPCSPTIPLQDLSLLRRAGVTWQHQPDSGPPAAAPGHPLAPGPHPAAPSSWGPRPRRYTVLSVGPGGLRSGRLPLQPRVQLDERGRQRGDFSLWLRPARRADAGEYRAAVHLRDRALSCRLRLRLGQASMTASPPGSLRASDWVILNCSFSRPDRPASVHWFRNRGQGRVPVRESPHHHLAESFLFLPQVSPMDSGPWGCILTYRDGFNVSIMYNLTVLGLEPPTPLTVYAGAGSRVGLPCRLPAGVGTRSFLTAKWTPPGGGPDLLVTGDNGDFTLRLEDVSQAQAGTYTCHIHLQEQQLNATVTLAIITVTPKSFGSPGSLGKLLCEVTPVSGQERFVWSSLDTPSQRSFSGPWLEAQEAQLLSQPWQCQLYQGERLLGAAVYFTELSSPGAQRSGRAPGALPAGHLLLFLILGVLSLLLLVTGAFGFHLWRRQWRPRRFSALEQGIHPPQAQSKIEELEQEPEPEPEPEPEPEPEPEPEQL
2 | – | > 3 | 0.077 | LAG3 (protein) MWEAQFLGLLFLQPLWVAPVKPLQPGAEVPVVWAQEGAPAQLPCSPTIPLQDLSLLRRAGVTWQHQPDSGPPAAAPGHPLAPGPHPAAPSSWGPRPRRYTVLSVGPGGLRSGRLPLQPRVQLDERGRQRGDFSLWLRPARRADAGEYRAAVHLRDRALSCRLRLRLGQASMTASPPGSLRASDWVILNCSFSRPDRPASVHWFRNRGQGRVPVRESPHHHLAESFLFLPQVSPMDSGPWGCILTYRDGFNVSIMYNLTVLGLEPPTPLTVYAGAGSRVGLPCRLPAGVGTRSFLTAKWTPPGGGPDLLVTGDNGDFTLRLEDVSQAQAGTYTCHIHLQEQQLNATVTLAIITVTPKSFGSPGSLGKLLCEVTPVSGQERFVWSSLDTPSQRSFSGPWLEAQEAQLLSQPWQCQLYQGERLLGAAVYFTELSSPGAQRSGRAPGALPAGHLLLFLILGVLSLLLLVTGAFGFHLWRRQWRPRRFSALEQGIHPPQAQSKIEELEQEPEPEPEPEPEPEPEPEPEQL
